# Reference: patent publication US9206432B2, “Sulfonylurea-responsive repressor proteins” (priority 2008, dated 2015)
# Where two headings read alike, the source gives them in different places.
# System: lacZ under control of the tetA promoter (PtetA) in E. coli KM3
# Type: cell-based
# Conditions: for relative β-galactosidase activity, inducer atc: anhydrotetracycline (0.4 μM)
# [1] = Table 6, reverse repressor hits
# [2] = Table 6, reverse repressor hits, chlorimuron, same plate assay format (20 ppm)
# [3] = Table 6, reverse repressor hits, chlorsulfuron, same plate assay format (20 ppm)
# [4] = Table 6, reverse repressor hits, ethametsulfuron, same plate assay format (20 ppm)
# [5] = Table 6, reverse repressor hits, metsulfuron, same plate assay format (20 ppm)
# [6] = Table 6, reverse repressor hits, nicosulfuron, same plate assay format (20 ppm)
# [7] = Table 6, reverse repressor hits, rimsulfuron, same plate assay format (20 ppm)
# [8] = Table 6, reverse repressor hits, sulfometuron, same plate assay format (20 ppm)
# [9] = Table 6, reverse repressor hits, thifensulfuron, same plate assay format (20 ppm)
# [10] = Table 6, reverse repressor hits, tribenuron, same plate assay format (20 ppm)
# [11] = Table 4, chlorimuron 20 ppm, 48 hrs at 30° C.
# [12] = Table 4, chlorsulfuron 20 ppm, 48 hrs at 30° C.
# [13] = Table 4, ethametsulfuron 20 ppm, 48 hrs at 30° C.
# [14] = Table 4, metsulfuron 20 ppm, 48 hrs at 30° C.
# [15] = Table 4, nicosulfuron 20 ppm, 48 hrs at 30° C.
# [16] = Table 4, rimsulfuron 20 ppm, 48 hrs at 30° C.
# [17] = Table 4, sulfometuron 20 ppm, 48 hrs at 30° C.
# [18] = Table 4, thifensulfuron 20 ppm, 48 hrs at 30° C.
# [19] = Table 4, tribenuron 20 ppm, 48 hrs at 30° C.
Molecule,"relative β-galactosidase activity, inducer atc [1]","relative β-galactosidase activity, inducer Ci [2]","relative β-galactosidase activity, inducer Cs [3]","relative β-galactosidase activity, inducer Es [4]","relative β-galactosidase activity, inducer Ms [5]","relative β-galactosidase activity, inducer Ns [6]","relative β-galactosidase activity, inducer Rs [7]","relative β-galactosidase activity, inducer Sm [8]","relative β-galactosidase activity, inducer Ts [9]","relative β-galactosidase activity, inducer Tb [10]","relative β-galactosidase activity, inducer Ci [11]","relative β-galactosidase activity, inducer Cs [12]","relative β-galactosidase activity, inducer Es [13]","relative β-galactosidase activity, inducer Ms [14]","relative β-galactosidase activity, inducer Ns [15]","relative β-galactosidase activity, inducer Rs [16]","relative β-galactosidase activity, inducer Sm [17]","relative β-galactosidase activity, inducer Ts [18]","relative β-galactosidase activity, inducer Tb [19]"
"L1-21: library L1 hit with reverse repressor activity (SEQ ID NO: 1206-1213) (protein, rSuR L1-21) MGSRLDKSKVINSALELLNEVGIEGLTTRKLAQKLGVEQPTLYWHVKNKRALLDALAIEMLDRHATHFCPLEGESWQDFLRNNAKSFRCALLSHRDGAKVCLGTAGTEKQYETLENCLAFLCQQGFSLENALYARSAVVCFTLGCVLFDQEMQVAKEERETPTTDSMPPLLRQAAELLDHQGAEPAFLFGLELIICGLEKQLKCESGS",2.81,0.07,0.89,0.61,0.89,2.74,2.31,2.39,0.79,2.13,,,,,,,,,
"L1-33: library L1 hit with reverse repressor activity (SEQ ID NO: 1206-1213) (protein, rSuR L1-33) MGSRLDKSKVINSALELLNEVGIEGLTTRKLAQKLGVEQPTLYWHVKNKRALLDALAIEMLDRHATHFCPLEGESWQDFLRNNAKSMRCALLSHRDGAKVQLGTAATEKQYETLENKLAFLCQQGFSLENALYAHSAVTQFTLGCVLRDQEGQVAKEERETPTTDSMPPLLRQARELRDHQGAEPAFLFGLELIICGLEKQLKCESGS",8.25,0.76,3.74,2.11,4.29,5.34,10.32,5.02,5.51,4.71,,,,,,,,,
"L1-20: SU-responsive TetR(B) variant, library L1 hit, SEQ ID NO: 6 (protein, Sulfonylurea responsive repressor L1-20) MGSRLDKSKVINSALELLNEVGIEGLTTRKLAQKLGVEQPTLYWHVKNKRALLDALAIEMMDRHQTHFCPLEGESWQDFLRNNAKSMRCALLSHRDGAKVFLGTAWTEKQYETVENLLAFLCQQGFSLENALYALNAVATFTLGCVLWDQEKQVAKEERETPTTDSMPPLLRQAHELGDHQGAEPAFLFGLELIICGLEKQLKSESGS",,,,,,,,,,,13.5,22.0,15.0,12.4,1.6,2.0,6.0,2.6,2.6
"L1-39: library L1 hit with reverse repressor activity (SEQ ID NO: 1206-1213) (protein, rSuR L1-39) MGSRLDKSKVINSALELLNEVGIEGLTTRKLAQKLGVEQPTLYWHVKNKRALLDALAIEMMDRHQTHFCPLEGESWQDFLRNTAKSYRCALLSHRDGAKVILGTRWTEKQYETRENVLAFLCQQGFSLENALYAWAAVGPFTLGCVLRDQERQVAKEERETPTTDSMPPLLRQALELMDHQGAEPAFLFGLELIICGLEKQLKCESGS",4.92,0.49,0.89,0.60,0.75,3.03,4.72,0.91,1.42,0.97,,,,,,,,,
"L1-41: library L1 hit with reverse repressor activity (SEQ ID NO: 1206-1213) (protein, rSuR L1-41) MGSRLDKSKVINSALELLNEVGIEGLTTRKLAQKLGVEQPTLYWHVKNKRALLDALAIEMLDRNQTHFCPLEGESWQDFLRNNAKSWRCALLSHRDGAKVMLGTRNTEKQYETAENGLAFLCQQGFSLENALYACRAVWTFTLGCVLDDQETQVAKEERETPTSDSMPPLLRQAMELKDHQGAEPAFLFGLELIICGLEKQLKCESGS",4.21,0.39,0.61,0.18,0.56,2.75,4.05,0.67,1.46,1.41,,,,,,,,,
"L1-25: library L1 hit with reverse repressor activity (SEQ ID NO: 1206-1213) (protein, rSuR L1-25) MGSRLDKSKVINSALELLNEVGIEGLTTRKLAQKLGVEQPTLYWHVKNKRALLDALAIEMLDRHATHFCPLEGESWQDFLRNTAKSMRCALLSHRDGAKVLLGTATTEKQYETLENLLAFLYQQGFSLENALYAWQAVWRFTLGCVLIDQETQVAKEERETPTTDSMPPLLRQAVELKDHQGAEPAFLFGLELIICGLEKQLKCETGS",1.22,0.11,0.28,0.13,0.32,1.21,1.08,0.63,0.64,1.72,,,,,,,,,
"L1-18: library L1 hit with reverse repressor activity (SEQ ID NO: 1206-1213) (protein, rSuR L1-18) MGSRLDKSKVINSALELLNEVGIEGLTTRKLAQKLGVEQPTLYWHVKNKRALLDALAIEMLDRHLTHFCPLEGESWQDFLRNNAKSMRCALLSHRDGAKVWLGTGFTEKQYETKENRLAFLCQQGFSLENALYAIRAVSRFTLGCVLQDQEPQVAKEERETPTTDSMPPLLRQAVELFDHQGAEPAFLFGLELIICGLEKQLKCESES",2.35,0.36,1.22,0.37,0.79,1.44,2.55,0.94,1.13,1.65,,,,,,,,,
"L1-36: library L1 hit with reverse repressor activity (SEQ ID NO: 1206-1213) (protein, rSuR L1-36) MGSRLDKSKVINSALELLNEVGIEGLTTRKLAQKLGVEQPTLYWHVKNKRALLDALAIEMADRHHTHFCPLEGESWQDFLRNAAKSMRCALLSHRDGAKVRLGTAWTEKQYETHENVLAFLCQQGFSLENALYALKAVSGFTLGCVLKDQEMQVAKEERETPTTDSMPPLLRQATELVDHQGAEPAFLFGLELIICGLEKQLKCESGS",1.70,0.21,0.24,0.20,0.38,1.81,1.84,0.50,0.48,0.57,,,,,,,,,
"L1-7: SU-responsive TetR(B) variant, library L1 hit, SEQ ID NO: 4 (protein, Sulfonylurea responsive repressor L1-07) MGSRLDKSKVINSALELLNEVGIEGLTTRKLAQKLGVEQPTLYWHVKNKRALLDALAIEMLDRHNTHFCPLEGESWQDFLRNNAKSWRCALLSHRDGAKVVLGTAITEKQYETHENPLAFLCQQGFSLENALYAIAAVRRFTLGCVLVDQERQVAKEERETPTTDSMPPLLRQASELQDHQGAEPAFLFGLELIICGLEKQLKCERGS",,,,,,,,,,,16.5,3.1,0.1,0.2,0.1,0.2,6.4,0.1,0.2
